Test results: the supplement of paper PMC10567573

B1: PBXIP1 (parent)
chain: LQQLRARLQGLEADCVRGPDGVCL
B2: TNXB (parent)
chain: FSEIRETSAKVNWMPPPSRADSFK

Variants of: B1
Assay: protein stability index of a GFP-peptide fusion (GPS, HEK-293T) (PSI 1-6); higher = more stable
Conditions: c terminus: a fixed tail appended
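Further: lentivirally expressed fusions sorted by FACS into six bins by GFP to DsRed ratio, PSI derived from sequencing read proportions per bin multiplied by bin number.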

Variant | protein stability index
LRQLRARLQGLEADCVRGPDGVCL [Q2R] | 1.82
LFQLRARLQGLEADCVRGPDGVCL [Q2F] | 3.06
LTQLRARLQGLEADCVRGPDGVCL [Q2T] | 2.61
LKQLRARLQGLEADCVRGPDGVCL [Q2K] | 1.38
LMQLRARLQGLEADCVRGPDGVCL [Q2M] | 1.74
LPQLRARLQGLEADCVRGPDGVCL [Q2P] | 3.05
LNQLRARLQGLEADCVRGPDGVCL [Q2N] | 3.27
LIQLRARLQGLEADCVRGPDGVCL [Q2I] | 1.3
LCQLRARLQGLEADCVRGPDGVCL [Q2C] | 3.55
LSQLRARLQGLEADCVRGPDGVCL [Q2S] | 2.63
LGQLRARLQGLEADCVRGPDGVCL [Q2G] | 2.38
LYQLRARLQGLEADCVRGPDGVCL [Q2Y] | 1.24
LEQLRARLQGLEADCVRGPDGVCL [Q2E] | 2.63
LWQLRARLQGLEADCVRGPDGVCL [Q2W] | 1.28
LLQLRARLQGLEADCVRGPDGVCL [Q2L] | 1.41

Variants of: B2
Assay: as above
Conditions: c terminus: a fixed tail appended

Variant | protein stability index
FSEIRETSDKVNWMPPPSRADSFK [A9D] | 3.58
FSEIRETSYKVNWMPPPSRADSFK [A9Y] | 2.82
FSEIRETSIKVNWMPPPSRADSFK [A9I] | 2.83
FSEIRETSTKVNWMPPPSRADSFK [A9T] | 3.46
FSEIRETSQKVNWMPPPSRADSFK [A9Q] | 3.72
FSEIRETSWKVNWMPPPSRADSFK [A9W] | 2.46
FSEIRETSAKVNWMPWPSRADSFK [P16W] | 1.82
FSEIQETSAKVNWMPPPSRADSFK [R5Q] | 4.15
FSEIAETSAKVNWMPPPSRADSFK [R5A] | 3.96
FSEIGETSAKVNWMPPPSRADSFK [R5G] | 3.22
FSEIKETSAKVNWMPPPSRADSFK [R5K] | 3.74
FSEIRETKAKVNWMPPPSRADSFK [S8K] | 2.95
FSEIRETEAKVNWMPPPSRADSFK [S8E] | 3.5
FSEIRETLAKVNWMPPPSRADSFK [S8L] | 2.79
FSEIRETDAKVNWMPPPSRADSFK [S8D] | 4.48
FSEIREKSAKVNWMPPPSRADSFK [T7K] | 3.97
FSEIREMSAKVNWMPPPSRADSFK [T7M] | 2.97
FSEIREYSAKVNWMPPPSRADSFK [T7Y] | 2.25
FSEIRETSAKVNWMPPPSRAMSFK [D21M] | 3.41
FSEIRETSAKVNWMPPPSRAPSFK [D21P] | 3.61
FSEIRETSAKRNWMPPPSRADSFK [V11R] | 3.02
FSEIRETSAKINWMPPPSRADSFK [V11I] | 3.77
FSEIRETSAKANWMPPPSRADSFK [V11A] | 3.77
FSEIRETSAKKNWMPPPSRADSFK [V11K] | 4.2
FSEIRETSAKSNWMPPPSRADSFK [V11S] | 3.87
FDEIRETSAKVNWMPPPSRADSFK [S2D] | 4.12
FHEIRETSAKVNWMPPPSRADSFK [S2H] | 2.21

Variant | protein stability index
FLEIRETSAKVNWMPPPSRADSFK [S2L] | 2.97
FAEIRETSAKVNWMPPPSRADSFK [S2A] | 2.69
FSEIRETSAKVNWMPPPSRADSIK [F23I] | 3.5
FSEIRETSAKVNWMPPPSRADSCK [F23C] | 4.22
FSEIRETSAKVNWMPPPSRADSSK [F23S] | 3.89
FSEIRETSAKVQWMPPPSRADSFK [N12Q] | 3.04
FSEIRETSAKVSWMPPPSRADSFK [N12S] | 3.38
FSEIRETSAKVKWMPPPSRADSFK [N12K] | 2.88
FSEIRETSAKVNWMFPPSRADSFK [P15F] | 2.46
FSEIRETSAKVNWMHPPSRADSFK [P15H] | 3.42
FSEIRETSAKVNWMGPPSRADSFK [P15G] | 3.29
FSEIRETSAKVNWMIPPSRADSFK [P15I] | 2.18
FSEIRETSAKVNWMDPPSRADSFK [P15D] | 3.85
FSEIRETSAKVNLMPPPSRADSFK [W13L] | 4
FSEIRETSAKVNHMPPPSRADSFK [W13H] | 3.61
FSEIRETSAKVNSMPPPSRADSFK [W13S] | 3.83
FSEIRETSAKVNPMPPPSRADSFK [W13P] | 4.43
FSEIRETSAKVNCMPPPSRADSFK [W13C] | 4.27
FSEIRETSAEVNWMPPPSRADSFK [K10E] | 3.76
FSEIRETSAQVNWMPPPSRADSFK [K10Q] | 4.12
FSEIRETSAAVNWMPPPSRADSFK [K10A] | 3.92
FSEIRETSAMVNWMPPPSRADSFK [K10M] | 3.72
FSEIRETSANVNWMPPPSRADSFK [K10N] | 2.94
FSEIRETSACVNWMPPPSRADSFK [K10C] | 3
FSEIRETSAKVNWMPPPSRIDSFK [A20I] | 3.05
FSEIRETSAKVNWMPPPSRNDSFK [A20N] | 3.27
FSEIRETSAKVNWMPPPSRADSFG [K24G] | 3.35

Variant | protein stability index
FSEIRETSAKVNWMPPPSRADSFL [K24L] | 2.42
FSEIRETSAKVNWMPPPSRADSFM [K24M] | 2.48
FSEMRETSAKVNWMPPPSRADSFK [I4M] | 3.92
FSECRETSAKVNWMPPPSRADSFK [I4C] | 3.49
FSEIRETSAKVNWMPPPSLADSFK [R19L] | 2.65
FSEIRETSAKVNWMPPPSMADSFK [R19M] | 3.12
FSEIRETSAKVNWMPPHSRADSFK [P17H] | 3.08
FSEIRETSAKVNWMPPESRADSFK [P17E] | 4.09
FSEIRETSAKVNWMPPFSRADSFK [P17F] | 3.19
FSEIRETSAKVNWMPPRSRADSFK [P17R] | 3.3
FSEIRETSAKVNWMPPPSRADAFK [S22A] | 3.32
FSEIRETSAKVNWMPPPSRADIFK [S22I] | 3.38
FSEIRETSAKVNWMPPPSRADRFK [S22R] | 3.95
FSEIRETSAKVNWMPPPSRADGFK [S22G] | 2.97
FSEIRETSAKVNWMPPPSRADLFK [S22L] | 3.22
FSTIRETSAKVNWMPPPSRADSFK [E3T] | 3.52
FSYIRETSAKVNWMPPPSRADSFK [E3Y] | 2.21
FSCIRETSAKVNWMPPPSRADSFK [E3C] | 1.77
FSEIRETSAKVNWMPPPGRADSFK [S18G] | 3.51
FSEIRETSAKVNWMPPPNRADSFK [S18N] | 3.18
FSEIRETSAKVNWMPPPLRADSFK [S18L] | 2.75
ISEIRETSAKVNWMPPPSRADSFK [F1I] | 3.46
NSEIRETSAKVNWMPPPSRADSFK [F1N] | 4.63
KSEIRETSAKVNWMPPPSRADSFK [F1K] | 4.4
FSEIRCTSAKVNWMPPPSRADSFK [E6C] | 2.65
